# According to the supplement of paper PMC10567573:
# B1: MED27 (parent)
# chain: YNENVYTEDGKLDIWSKSNYQVFQ
# B2: FAM98B (parent)
# chain: QLDKNSEVYQEVQAMFDTLGIPKS
# Variants of: B1
# Assay: protein stability index of a GFP-peptide fusion (GPS, HEK-293T) (PSI 1-6); higher = more stable
# Settings: c terminus: a fixed tail appended
# 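Also: lentivirally expressed fusions sorted by FACS into six bins by GFP to DsRed ratio, PSI derived from sequencing read proportions per bin multiplied by bin number.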
row,Variant,protein stability index
1,YNENVYTEDGKLDIWSKHNYQVFQ,2.42
2,YNENVYTEDGKLDIWSKKNYQVFQ,1.97
3,YNENVYTEDGKLDIWSKENYQVFQ,3.33
4,YNENVYTEDGKLDIWSKWNYQVFQ,1.68
5,YNENVYTEDGKLDIWSKFNYQVFQ,1.36
6,YNENVYTEDGKLDIWSKMNYQVFQ,2.21
7,YNENVYTEDGKLDIWSKRNYQVFQ,1.52
8,YNENVYTEDGKLDIWSKGNYQVFQ,1.91
9,YNENVYTEDGKLDIWSKPNYQVFQ,2.13
10,YNENVYTEDGKLDIWSKVNYQVFQ,2.58
11,YNENVYTEDGKLDIWSKQNYQVFQ,2.56
12,YNENVYTEDGKLDIWSKNNYQVFQ,2.69
13,YNENVYTEDGKLDIWSKTNYQVFQ,2.62
14,YNENVYTEDGKLDIWSKLNYQVFQ,2
15,YNENVYTEDGKLDIWSKYNYQVFQ,2.26
16,YNENVYTEDGKLDIWSKDNYQVFQ,3.09
17,YNENVYTEDGKLDIWSKINYQVFQ,1.96
18,YNENVYTEDGKLDIWSKSEYQVFQ,3.36
19,YNENVYTEDGKLDIWSKSIYQVFQ,1.6
20,YNENVYTEDGKLDIWSKSAYQVFQ,2.52
21,YNENVYTEDGKLDIWSKSVYQVFQ,1.58
22,YNENVYTEDGKLDIWSKSGYQVFQ,1.96
23,YNENVYTEDGKLDIWSKSDYQVFQ,2.75
24,YNENVYTEDGKLDIWSKSYYQVFQ,2.56
25,YNENVYTEDGKLDIWSKSCYQVFQ,1.59
26,YNENVYTEDGKLDIWSKSQYQVFQ,2.26

row,Variant,protein stability index
1,YNENVYTEDGKLDIWSKSLYQVFQ,1.58
2,YNENVYTEDGKLDIWSKSTYQVFQ,1.78
3,YNENVYTEDGKLDIWSKSKYQVFQ,1.96
4,YNENVYTEDGKLDIWSKSMYQVFQ,1.94
5,YNENVYTEDGKLDIWSKSPYQVFQ,1.88
6,YNENVYTEDGKLDIWSKSWYQVFQ,1.73
7,YNENVYTEDGKLDIWSKSSYQVFQ,2.05
8,YNENVYTEDGKLDIWSKSRYQVFQ,2.4
9,YNENVYTEDGKLDIWSKSHYQVFQ,2.19
10,YNENVYTEDGKLDIWSKSFYQVFQ,1.67
11,YNENVYTEDGKLDIWSKSNSQVFQ,2.72
12,YNENVYTEDGKLDIWSKSNRQVFQ,2.59
13,YNENVYTEDGKLDIWSKSNHQVFQ,2.58
14,YNENVYTEDGKLDIWSKSNIQVFQ,2.37
15,YNENVYTEDGKLDIWSKSNKQVFQ,2.76
16,YNENVYTEDGKLDIWSKSNWQVFQ,1.64
17,YNENVYTEDGKLDIWSKSNFQVFQ,2.25
18,YNENVYTEDGKLDIWSKSNPQVFQ,3.01
19,YNENVYTEDGKLDIWSKSNTQVFQ,2.9
20,YNENVYTEDGKLDIWSKSNEQVFQ,3.2
21,YNENVYTEDGKLDIWSKSNDQVFQ,3.38
22,YNENVYTEDGKLDIWSKSNAQVFQ,2.49
23,YNENVYTEDGKLDIWSKSNMQVFQ,1.92
24,YNENVYTEDGKLDIWSKSNGQVFQ,2.62
25,YNENVYTEDGKLDIWSKSNQQVFQ,2.94
26,YNENVYTEDGKLDIWSKSNNQVFQ,3.28

row,Variant,protein stability index
1,YNENVYTEDGKLDIWSKSNCQVFQ,2.49
2,YNENVYTEDGKLDIWSKSNVQVFQ,2.52
3,YNENVYTEDGKLDIWSKSNLQVFQ,2.35
4,YNENVYTEDGKLDIWSKSNYQVDQ,3.26
5,YNENVYTEDGKLDIWSKSNYQVAQ,2.5
6,YNENVYTEDGKLDIWSKSNYQVNQ,2.93
7,YNENVYTEDGKLDIWSKSNYQVIQ,2.43
8,YNENVYTEDGKLDIWSKSNYQVEQ,3.02
9,YNENVYTEDGKLDIWSKSNYQVQQ,3.29
10,YNENVYTEDGKLDIWSKSNYQVLQ,2.41
11,YNENVYTEDGKLDIWSKSNYQVYQ,2.31
12,YNENVYTEDGKLDIWSKSNYQVSQ,1.4
13,YNENVYTEDGKLDIWSKSNYQVMQ,2.28
14,YNENVYTEDGKLDIWSKSNYQVVQ,2.38
15,YNENVYTEDGKLDIWSKSNYQVKQ,3.22
16,YNENVYTEDGKLDIWSKSNYQVGQ,2.88
17,YNENVYTEDGKLDIWSKSNYQVWQ,2.16
18,YNENVYTEDGKLDIWSKSNYQVCQ,2.06
19,YNENVYTEDGKLDIWSKSNYQVHQ,2.87
20,YNENVYTEDGKLDIWSKSNYQVPQ,2.99
21,YNENVYTEDGKLDIWSKSNYQVTQ,3
22,YNENVYTEDGKLDIWSKSNYQEFQ,2.52
23,YNENVYTEDGKLDIWSKSNYQIFQ,2.22
24,YNENVYTEDGKLDIWSKSNYQRFQ,2.21
25,YNENVYTEDGKLDIWSKSNYQSFQ,2.5
26,YNENVYTEDGKLDIWSKSNYQNFQ,2.41

row,Variant,protein stability index
1,YNENVYTEDGKLDIWSKSNYQCFQ,2.56
2,YNENVYTEDGKLDIWSKSNYQPFQ,2.66
3,YNENVYTEDGKLDIWSKSNYQFFQ,2.79
4,YNENVYTEDGKLDIWSKSNYQKFQ,2.4
5,YNENVYTEDGKLDIWSKSNYQQFQ,2.73
6,YNENVYTEDGKLDIWSKSNYQWFQ,1.76
7,YNENVYTEDGKLDIWSKSNYQGFQ,2.24
8,YNENVYTEDGKLDIWSKSNYQLFQ,2.28
9,YNENVYTEDGKLDIWSKSNYQYFQ,2.42
10,YNENVYTEDGKLDIWSKSNYQDFQ,2.83
11,YNENVYTEDGKLDIWSKSNYQHFQ,2.27
12,YNENVYTEDGKLDIWSKSNYQAFQ,2.3
13,YNENVYTEDGKLDIWSKSNYQMFQ,2.37
14,YNENVYTEDGKLDIWSKSNYQTFQ,2.45
15,YNENVYTEDGKLDIWSKSNYLVFQ,2.07
16,YNENVYTEDGKLDIWSKSNYRVFQ,2.23
17,YNENVYTEDGKLDIWSKSNYMVFQ,2.21
18,YNENVYTEDGKLDIWSKSNYGVFQ,1.59
19,YNENVYTEDGKLDIWSKSNYFVFQ,1.79
20,YNENVYTEDGKLDIWSKSNYDVFQ,2.41
21,YNENVYTEDGKLDIWSKSNYEVFQ,2.09
22,YNENVYTEDGKLDIWSKSNYKVFQ,2.44
23,YNENVYTEDGKLDIWSKSNYAVFQ,2.46
24,YNENVYTEDGKLDIWSKSNYTVFQ,2.76
25,YNENVYTEDGKLDIWSKSNYHVFQ,2.64
26,YNENVYTEDGKLDIWSKSNYSVFQ,1.97

row,Variant,protein stability index
1,YNENVYTEDGKLDIWSKSNYCVFQ,2.01
2,YNENVYTEDGKLDIWSKSNYVVFQ,1.82
3,YNENVYTEDGKLDIWSKSNYYVFQ,2.02
4,YNENVYTEDGKLDIWSKSNYIVFQ,2.44
5,YNENVYTEDGKLDIWSKSNYNVFQ,2.04
6,YNENVYTEDGKLDIWSKSNYPVFQ,1.98
7,YNENVYTEDGKLDIWSKSNYWVFQ,2.45
8,YNENVYTEDGKLDIWSKSNYQVFC,2.3
9,YNENVYTEDGKLDIWSKSNYQVFF,1.74
10,YNENVYTEDGKLDIWSKSNYQVFV,1.43
11,YNENVYTEDGKLDIWSKSNYQVFM,1.62
12,YNENVYTEDGKLDIWSKSNYQVFA,1.94
13,YNENVYTEDGKLDIWSKSNYQVFW,2.21
14,YNENVYTEDGKLDIWSKSNYQVFE,2.44
15,YNENVYTEDGKLDIWSKSNYQVFD,2.75
16,YNENVYTEDGKLDIWSKSNYQVFG,2.21
17,YNENVYTEDGKLDIWSKSNYQVFP,1.81
18,YNENVYTEDGKLDIWSKSNYQVFI,1.6
19,YNENVYTEDGKLDIWSKSNYQVFY,2.01
20,YNENVYTEDGKLDIWSKSNYQVFS,1.37
21,YNENVYTEDGKLDIWSKSNYQVFL,1.96
22,YNENVYTEDGKLDIWSKSNYQVFR,1.86
23,YNENVYTEDGKLDIWSKSNYQVFN,2.46
24,YNENVYTEDGKLDIWSKSNYQVFT,2.23
25,YNENVYTEDGKLDIWSKSNYQVFK,2.58
26,YNENVYTEDGKLDIWSKSNYQVFH,2.17

# Variants of: B2
# Assay: as above
# Settings: c terminus: a fixed tail appended
row,Variant,protein stability index
1,QEDKNSEVYQEVQAMFDTLGIPKS,5.34
2,QSDKNSEVYQEVQAMFDTLGIPKS,4.63
3,QGDKNSEVYQEVQAMFDTLGIPKS,4.76
4,QFDKNSEVYQEVQAMFDTLGIPKS,3.51
5,QNDKNSEVYQEVQAMFDTLGIPKS,4.36
6,QDDKNSEVYQEVQAMFDTLGIPKS,4.67
7,QVDKNSEVYQEVQAMFDTLGIPKS,3.87
8,QRDKNSEVYQEVQAMFDTLGIPKS,3.58
9,QHDKNSEVYQEVQAMFDTLGIPKS,4.13
10,QMDKNSEVYQEVQAMFDTLGIPKS,3.23
11,QCDKNSEVYQEVQAMFDTLGIPKS,4.07
12,QADKNSEVYQEVQAMFDTLGIPKS,4.38
13,QKDKNSEVYQEVQAMFDTLGIPKS,4.27
14,QWDKNSEVYQEVQAMFDTLGIPKS,4.03
15,QYDKNSEVYQEVQAMFDTLGIPKS,4.08
16,QTDKNSEVYQEVQAMFDTLGIPKS,4.32
17,QPDKNSEVYQEVQAMFDTLGIPKS,4.66
18,QQDKNSEVYQEVQAMFDTLGIPKS,4.23
19,QIDKNSEVYQEVQAMFDTLGIPKS,3.08
20,QLDANSEVYQEVQAMFDTLGIPKS,3.04

row,Variant,protein stability index
1,HLDKNSEVYQEVQAMFDTLGIPKS,3.64
2,WLDKNSEVYQEVQAMFDTLGIPKS,2.88
3,TLDKNSEVYQEVQAMFDTLGIPKS,3.18
4,ILDKNSEVYQEVQAMFDTLGIPKS,3.23
5,PLDKNSEVYQEVQAMFDTLGIPKS,3.53
6,RLDKNSEVYQEVQAMFDTLGIPKS,3.39
7,KLDKNSEVYQEVQAMFDTLGIPKS,3.2
8,MLDKNSEVYQEVQAMFDTLGIPKS,2.79
9,NLDKNSEVYQEVQAMFDTLGIPKS,3.39
10,YLDKNSEVYQEVQAMFDTLGIPKS,2.62
11,VLDKNSEVYQEVQAMFDTLGIPKS,2.7
12,CLDKNSEVYQEVQAMFDTLGIPKS,2.52
13,ALDKNSEVYQEVQAMFDTLGIPKS,2.91
14,ELDKNSEVYQEVQAMFDTLGIPKS,2.9
15,FLDKNSEVYQEVQAMFDTLGIPKS,2.2
16,GLDKNSEVYQEVQAMFDTLGIPKS,3.31
17,SLDKNSEVYQEVQAMFDTLGIPKS,2.96
18,DLDKNSEVYQEVQAMFDTLGIPKS,4.18
19,LLDKNSEVYQEVQAMFDTLGIPKS,2.55
20,QLMKNSEVYQEVQAMFDTLGIPKS,2.16

row,Variant,protein stability index
1,QLCKNSEVYQEVQAMFDTLGIPKS,2.21
2,QLQKNSEVYQEVQAMFDTLGIPKS,2.75
3,QLEKNSEVYQEVQAMFDTLGIPKS,3.87
4,QLFKNSEVYQEVQAMFDTLGIPKS,2.73
5,QLVKNSEVYQEVQAMFDTLGIPKS,2.67
6,QLPKNSEVYQEVQAMFDTLGIPKS,3.11
7,QLKKNSEVYQEVQAMFDTLGIPKS,3.45
8,QLGKNSEVYQEVQAMFDTLGIPKS,3.73
9,QLTKNSEVYQEVQAMFDTLGIPKS,3.06
10,QLNKNSEVYQEVQAMFDTLGIPKS,3.47
11,QLSKNSEVYQEVQAMFDTLGIPKS,2.93
12,QLYKNSEVYQEVQAMFDTLGIPKS,2.49
13,QLHKNSEVYQEVQAMFDTLGIPKS,3.43
14,QLRKNSEVYQEVQAMFDTLGIPKS,3.21
15,QLLKNSEVYQEVQAMFDTLGIPKS,2.06
16,QLWKNSEVYQEVQAMFDTLGIPKS,2.08
17,QLAKNSEVYQEVQAMFDTLGIPKS,3.46
18,QLIKNSEVYQEVQAMFDTLGIPKS,1.95
